From the supplement of paper PMC9732359
± gives the uncertainty stated by the source.

Assay: protein stability index of a GFP-peptide fusion (yeast GPS) (PSI 1-4); higher = more stable; sorted into four equal gates, so the index is relative within each strain
Summary of the method: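 Plasmids isolated from each sorting gate were PCR-amplified and Illumina-sequenced, and barcodes assigned the reads to strains. The gates, four of equal size, were set by GFP/Cherry fluorescence ratio on mid-log cultures in leucine-free medium. These cultures were yeast carrying a pooled library of tiled 17-residue yeast protein peptides fused downstream of GFP on a plasmid that also expresses Cherry. The protein stability index is the sum of every gate's read frequency times its gate number.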

Row | Sequence | protein stability index (doa10∆) | protein stability index (pdr5∆) | protein stability index (san1∆) | protein stability index (ubr1∆)
1 | KKMGVPYAIVKGKARLG [RPL8A] | 1.87 ± 0.17 | 2.09 ± 0.16 | 2.12 ± 0.17 | –
2 | KKNDEVSKPAFSFGAKA [YJL041W/NSP1] | 3.12 ± 0.14 | 3.02 ± 0.15 | 2.96 ± 0.094 | 3.07 ± 0.099
3 | KKQQAALTNELNELKAI [YIL149C/MLP2] | 1.42 ± 0.052 | 1.86 ± 0.07 | 1.83 ± 0.092 | 1.55 ± 0.051
4 | KKRAPRAVKEIKKFAKL [RPL31A] | – | 3.15 ± 0.21 | 2.86 ± 0.16 | –
5 | KKRMNSNQERCHDEGND [RRI1] | 3.24 ± 0.064 | 3.01 ± 0.068 | 3.06 ± 0.071 | 3.13 ± 0.061
6 | KKRSQAKMNAKTDFAKI [RPC82] | 3.42 ± 0.094 | 3.23 ± 0.12 | 3.22 ± 0.076 | 3.37 ± 0.059
7 | KKTATEPKQKANAVQNN [SRP21] | 3.06 ± 0.086 | 3.19 ± 0.082 | – | 3.24 ± 0.12
8 | KKTCSSCGYPAAKTRSY [RPL37A] | 2.25 ± 0.27 | 3.17 ± 0.11 | 2.69 ± 0.093 | 3.27 ± 0.11
9 | KKTCSSCGYPSAKTRSH [RPL37B] | 2.74 ± 0.066 | 2.51 ± 0.044 | 2.63 ± 0.084 | 1.99 ± 0.04
10 | KKVKLAVLSYYKVDAEG [RPS31] | 1.62 ± 0.084 | 2.32 ± 0.082 | 2.52 ± 0.074 | 1.95 ± 0.068
11 | KLALAENDTNMNETLNL [SMC4] | 3.15 ± 0.13 | 3.15 ± 0.077 | 3.04 ± 0.1 | 2.85 ± 0.089
12 | KLDSKKTVPFQVNQLQR [SSN3] | 3.15 ± 0.063 | 3.28 ± 0.042 | 3.19 ± 0.046 | 3.12 ± 0.049
13 | KLFNKWSFEEVEVKDAS [RPS5] | 2.17 ± 0.087 | 1.77 ± 0.072 | 1.4 ± 0.15 | 1.67 ± 0.06
14 | KLHMGTDDVRLAPELNQ [RPL31A] | 3.11 ± 0.12 | 3.25 ± 0.083 | 3.13 ± 0.083 | 3.09 ± 0.052
15 | KLIPKLYRYRFDPFQAV [ECM29] | 2.86 ± 0.14 | 2.77 ± 0.14 | 2.71 ± 0.11 | 2.8 ± 0.063
16 | KLKEYLDLVARTATLSN [YDL116W/NUP84] | 2.63 ± 0.23 | 2.88 ± 0.16 | 2.99 ± 0.1 | 2.74 ± 0.15
17 | KLKFFPSGEALISSSQD [RPN14] | 2.92 ± 0.23 | – | – | –
18 | KLLASTEENKANTNSVT [YIL149C/MLP2] | 3.32 ± 0.083 | 3.24 ± 0.066 | 3.25 ± 0.056 | 3.32 ± 0.036
19 | KLLLLNTSAIQETASPL [YIL149C/MLP2] | 2.33 ± 0.13 | 2.42 ± 0.21 | – | 2.56 ± 0.088
20 | KLRKIAISKKNKSLKYV [LIN1] | 1.65 ± 0.062 | 1.33 ± 0.059 | 1.23 ± 0.14 | 1.15 ± 0.048
21 | KLTGDDQKFGVPVRSFK [ASC1] | 2.36 ± 0.16 | 3.16 ± 0.12 | 2.77 ± 0.1 | 3 ± 0.1
22 | KLTRELEKKFPDRHVIF [RPS7B] | 2.75 ± 0.058 | 2.94 ± 0.049 | 2.99 ± 0.04 | 3.14 ± 0.033
23 | KLVTNVVDPKTSIEKSS [YML103C/NUP188] | 2.31 ± 0.056 | 2.71 ± 0.049 | 2.52 ± 0.069 | 2.62 ± 0.051
24 | KLWRKIARLYSCISISD [RRI2] | 2.87 ± 0.11 | 2.1 ± 0.075 | 2.69 ± 0.064 | 1.61 ± 0.038
25 | KLYVDAVHSIIALSRRF [YDL116W/NUP84] | 2.01 ± 0.077 | 1.81 ± 0.065 | 1.82 ± 0.12 | 1.93 ± 0.064
26 | KLYVSHIQVNQAPKQRR [RPL17A] | 1.89 ± 0.079 | 1.92 ± 0.068 | 2.02 ± 0.14 | 2.08 ± 0.11

Row | Sequence | protein stability index (doa10∆) | protein stability index (pdr5∆) | protein stability index (san1∆) | protein stability index (ubr1∆)
27 | KMMSFQANPTEESISKF [RPB5] | 3.02 ± 0.077 | 3.17 ± 0.076 | 2.4 ± 0.2 | 3.15 ± 0.12
28 | KNAANTEGHKGHEELKR [ISW2] | 3.43 ± 0.086 | 3.16 ± 0.081 | 3.2 ± 0.098 | 3.35 ± 0.061
29 | KNHFRKHWQERVKVHFD [RPL13A] | 1.3 ± 0.037 | 1.71 ± 0.05 | 1.47 ± 0.083 | 1.54 ± 0.038
30 | KNIKIIMATNRLDILDP [RPT6] | 2.91 ± 0.14 | 2.55 ± 0.079 | 2.41 ± 0.068 | 3.3 ± 0.058
31 | KNKSGKIFVETKFSKLI [FAS1] | 2.33 ± 0.072 | 2.69 ± 0.076 | 2.3 ± 0.16 | 1.84 ± 0.077
32 | KNKYGEINSEDYDNKTK [SRP68] | 3.23 ± 0.094 | 2.89 ± 0.16 | 3.43 ± 0.06 | 3.14 ± 0.084
33 | KNLKHIDVTFTKVNNQL [RPL9A] | 2.79 ± 0.057 | 2.58 ± 0.053 | 2.52 ± 0.07 | 2.62 ± 0.045
34 | KNREVVQVSKAGGLPMD [RRP45] | 3.04 ± 0.11 | 2.84 ± 0.097 | 2.54 ± 0.095 | 3.28 ± 0.067
35 | KNVENTKNLSILTSKVN [DSN1] | 2.37 ± 0.061 | 2.36 ± 0.049 | 2.53 ± 0.077 | 2.51 ± 0.036
36 | KNYSRPSTAIHTSPHQP [SIR4] | 2.86 ± 0.045 | 2.72 ± 0.044 | 2.65 ± 0.053 | 2.72 ± 0.044
37 | KPAEKNNNETSKPAFSF [YJL041W/NSP1] | 1.65 ± 0.15 | 1.98 ± 0.06 | 2.24 ± 0.16 | 1.64 ± 0.11
38 | KPAFSFGAKPDENKASA [YJL041W/NSP1] | 3.16 ± 0.093 | 3.3 ± 0.074 | 2.76 ± 0.06 | 3.24 ± 0.063
39 | KPETLSIGKNPFNKPNI [SWI3] | 2.85 ± 0.044 | 2.9 ± 0.041 | 2.75 ± 0.033 | 2.99 ± 0.03
40 | KPLTENCKKKKKRKKKN [RMP1] | 2.97 ± 0.19 | 1.89 ± 0.28 | 1.5 ± 0.14 | 3.38 ± 0.19
41 | KPNIILDEDDTNDGIER [RPC31] | 3.42 ± 0.076 | 3.27 ± 0.085 | 3.31 ± 0.051 | 3.27 ± 0.043
42 | KPQFENHVKQFYERLDK [MED11] | 2.87 ± 0.12 | 2.46 ± 0.19 | 2.57 ± 0.088 | 2.17 ± 0.17
43 | KPTREPTPSVKTEPVGT [RPC53] | 3.15 ± 0.22 | 3.06 ± 0.26 | 2.95 ± 0.19 | 3.02 ± 0.21
44 | KQAHEKLDASKKQQAAL [YIL149C/MLP2] | 3.08 ± 0.064 | 2.88 ± 0.052 | 3.25 ± 0.059 | 3 ± 0.057
45 | KQENETMQPPYIQERLK [MED11] | 2.88 ± 0.055 | 3.06 ± 0.054 | 3.19 ± 0.04 | 3.02 ± 0.033
46 | KQFLTKDLKFPLPHRVQ [RPL20A] | 2.67 ± 0.075 | 2.78 ± 0.057 | 2.86 ± 0.057 | 2.78 ± 0.046
47 | KQIIVTRKAMLDPLEVH [PRP8] | 3.11 ± 0.094 | 3.13 ± 0.071 | 3.16 ± 0.062 | 3.05 ± 0.055
48 | KQLTLLRSKLFQFKLLQ [SMC4] | 1.93 ± 0.051 | 1.88 ± 0.048 | 1.69 ± 0.064 | 2.34 ± 0.038
49 | KRANNIRKFFGLSKEDD [RPS6A] | 3.39 ± 0.17 | 3.22 ± 0.11 | 2.98 ± 0.15 | 3.56 ± 0.11
50 | KRCLFESLSNEAALKAN [RPO31] | – | – | – | 2.84 ± 0.22
51 | KRELKQLLEKAPIPIRE [BRR2] | 1.94 ± 0.05 | 2.22 ± 0.053 | 1.99 ± 0.13 | 1.91 ± 0.061
